For 2 molecules, binding signal and binding results are on record in article PMC11487190 (2024).

In one data set the test system is 30S ribosomal subunit. The data set is described as follows: toeprint (primer extension). The following applies: tRNA-fMet, with TPP; Toeprint buffer, salt, pH and temperature not given in the material; scale: fold decrease of toeprint efficiency vs no TPP.
Data set [1] relates to semi-synthetic tbpA aptamer (residues 1-89 + 3' anchoring sequence) (RNA, riboswitch, azide-modified U at 14 (clicked to Cy5)) GUUCUCAACGGGGUGCCACGCGUACGCGUGCGCUGAGAAAAUACCCGUCGAACCUGAUCCGGAUAACGCCGGCGAAGGGAUUUGAGGCUCCCCGGCCCCCCGGCC
The data set is described as follows: smFRET (TIRF). The following applies: 20 mM MgCl2, 20 mM NaCl; 1 mM TPP; folded state 14% to 48%; Tris-HCl buffer, pH 7.5.

“tbpA riboswitch nascent transcript (toeprint)”: the binding signal in the data set on 30S ribosomal subunit amounted to 2.2. On to `Cc1ncc(C[n+]2csc(CCOP(=O)(O)OP(=O)(O)O)c2C)c(N)n1`, for which the binding result in data set [1] is on record as “yes”.
